From article PMC10053439

Target: GAD-SNX5, C-terminally truncated splice variant of SNX5 lacking the last 45 amino acids
Assay: yeast two-hybrid β-galactosidase liquid assay
Conditions: mean of four transformants with SD; parent: est. 190; read off a plot

Q: Which response does the source give for “LexA-VPS13A(VAB), LexA DNA-binding domain fusion to the VAB domain of VPS13A (from UniProt Q96RL7) N2418S” here?
A: Its response is 21 U.
